Experimental findings from PMC10615762 are described below.

The target of this assay is prefusion-stabilized SARS-CoV-2 spike protein (S-clamp) (SARS-CoV-2). Briefly: SEC.

In turn, “prefusion-stabilized SARS-CoV-2 spike protein (S-clamp)” displayed a stoichiometry N of 3.

The term stoichiometry N denotes the number of molecules, sites or subunits per partner or assembly.
